Laboratory results from the supplement of paper PMC6379048.

What was measured:
Experiment in all cases: Kd (EC50 corrected by depletion factor)
PLOD1 = target: T1, PLOD1 (UniProt Q02809)
T1 sequence: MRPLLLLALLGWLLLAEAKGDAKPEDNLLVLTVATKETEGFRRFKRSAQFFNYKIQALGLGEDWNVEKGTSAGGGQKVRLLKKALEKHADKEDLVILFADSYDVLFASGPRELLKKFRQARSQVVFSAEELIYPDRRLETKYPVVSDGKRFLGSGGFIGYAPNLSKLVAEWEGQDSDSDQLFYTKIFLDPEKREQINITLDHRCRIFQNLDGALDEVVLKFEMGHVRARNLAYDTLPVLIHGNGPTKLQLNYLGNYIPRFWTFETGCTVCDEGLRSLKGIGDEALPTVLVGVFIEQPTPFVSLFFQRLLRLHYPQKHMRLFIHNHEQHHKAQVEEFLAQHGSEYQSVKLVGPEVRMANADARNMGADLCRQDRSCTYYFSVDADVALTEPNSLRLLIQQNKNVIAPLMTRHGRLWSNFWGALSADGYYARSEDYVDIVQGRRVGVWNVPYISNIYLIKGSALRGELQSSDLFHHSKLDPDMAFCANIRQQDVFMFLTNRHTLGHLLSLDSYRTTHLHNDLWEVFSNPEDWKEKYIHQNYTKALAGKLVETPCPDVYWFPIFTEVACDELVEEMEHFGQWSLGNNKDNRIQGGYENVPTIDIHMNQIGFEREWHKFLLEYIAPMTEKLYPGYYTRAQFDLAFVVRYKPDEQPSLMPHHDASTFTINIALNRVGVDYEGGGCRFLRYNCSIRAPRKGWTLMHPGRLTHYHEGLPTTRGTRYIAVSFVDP
Method in brief: (§1)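 HEK293-FT lysate (2.5 mg protein/well) was pre-incubated 1 h at 4°C with free RNA oligos (0 nM to 30 μM), then 30 min at 4°C with the same 5′-amino-C6 oligos coupled to NHS-Sepharose beads. Bound proteins were quantified by label-free LC-MS/MS in three biological replicates and two independent experiments, and normalised to the water control. EC50 came from a four-parameter log-logistic fit; Kd is EC50 times a protein-dependent depletion factor.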

MRPS9 = MRPS9 (UniProt P82933)
Method in brief: as §1

MRPL53 = MRPL53 (UniProt Q96EL3)
Method in brief: as §1

MRPL37 = MRPL37 (UniProt Q9BZE1)
Method in brief: as §1

RPS14 = RPS14 (UniProt P62263)
Method in brief: as §1

C1QBP = target: T2, C1QBP (UniProt Q07021)
T2 sequence: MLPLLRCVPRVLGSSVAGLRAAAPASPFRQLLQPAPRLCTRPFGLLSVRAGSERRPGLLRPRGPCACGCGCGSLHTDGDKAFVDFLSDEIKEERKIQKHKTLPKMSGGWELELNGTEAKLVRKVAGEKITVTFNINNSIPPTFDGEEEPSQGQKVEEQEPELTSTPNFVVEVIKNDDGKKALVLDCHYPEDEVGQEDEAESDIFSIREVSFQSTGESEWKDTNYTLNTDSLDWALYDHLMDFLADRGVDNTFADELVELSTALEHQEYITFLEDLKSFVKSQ
Method in brief: as §1

GPATCH11 = GPATCH11 (UniProt Q8N954)
Method in brief: as §1

UPF1 = target: T3, UPF1 (UniProt Q92900)
T3 sequence: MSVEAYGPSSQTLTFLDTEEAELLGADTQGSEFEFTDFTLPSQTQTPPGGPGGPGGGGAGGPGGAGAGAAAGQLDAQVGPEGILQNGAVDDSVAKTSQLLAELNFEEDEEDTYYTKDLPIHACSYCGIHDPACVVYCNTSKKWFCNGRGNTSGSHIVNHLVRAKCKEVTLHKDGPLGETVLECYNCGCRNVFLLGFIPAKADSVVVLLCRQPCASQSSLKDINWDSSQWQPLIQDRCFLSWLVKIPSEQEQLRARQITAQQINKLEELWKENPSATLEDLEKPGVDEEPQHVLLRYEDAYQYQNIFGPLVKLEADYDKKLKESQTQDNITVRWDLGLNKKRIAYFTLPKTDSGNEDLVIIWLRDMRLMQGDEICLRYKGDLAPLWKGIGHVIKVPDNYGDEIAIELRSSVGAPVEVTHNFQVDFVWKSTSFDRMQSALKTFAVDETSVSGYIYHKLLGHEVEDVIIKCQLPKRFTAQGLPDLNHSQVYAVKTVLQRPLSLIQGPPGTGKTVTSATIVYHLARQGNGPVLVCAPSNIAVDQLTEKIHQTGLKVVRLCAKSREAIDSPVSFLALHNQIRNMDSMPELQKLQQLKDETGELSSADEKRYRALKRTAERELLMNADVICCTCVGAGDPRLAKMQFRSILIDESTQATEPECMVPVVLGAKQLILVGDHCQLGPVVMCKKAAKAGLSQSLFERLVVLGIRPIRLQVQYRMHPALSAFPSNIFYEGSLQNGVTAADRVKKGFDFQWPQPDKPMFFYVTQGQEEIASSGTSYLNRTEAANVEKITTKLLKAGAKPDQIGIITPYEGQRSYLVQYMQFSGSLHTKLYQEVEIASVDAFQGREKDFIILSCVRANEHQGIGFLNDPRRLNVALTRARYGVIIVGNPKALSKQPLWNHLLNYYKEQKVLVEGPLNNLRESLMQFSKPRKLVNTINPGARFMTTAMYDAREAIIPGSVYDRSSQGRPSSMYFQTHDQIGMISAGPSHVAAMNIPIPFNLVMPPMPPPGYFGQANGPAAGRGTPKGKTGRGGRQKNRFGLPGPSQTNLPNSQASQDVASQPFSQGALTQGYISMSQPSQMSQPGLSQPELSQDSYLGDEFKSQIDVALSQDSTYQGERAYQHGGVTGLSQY
Method in brief: as §1

Sequence of GPATCH11 (Q8N954 whole entry): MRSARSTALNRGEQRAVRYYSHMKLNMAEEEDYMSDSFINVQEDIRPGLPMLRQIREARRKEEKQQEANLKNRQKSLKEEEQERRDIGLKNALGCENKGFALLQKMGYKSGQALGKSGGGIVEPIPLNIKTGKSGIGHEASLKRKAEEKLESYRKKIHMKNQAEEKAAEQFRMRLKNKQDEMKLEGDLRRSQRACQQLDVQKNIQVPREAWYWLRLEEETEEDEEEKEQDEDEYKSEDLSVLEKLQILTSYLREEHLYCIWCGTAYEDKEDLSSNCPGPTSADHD

## UAUUUAU
PLOD1
  Kd: 4470 nM
MRPS9
  Kd: 27.1 nM

## CUGUCCU
MRPL53
  Kd: 100 nM
MRPL37
  Kd: 76.1 nM
RPS14
  Kd: 126 nM

## AAUAAA
C1QBP
  Kd: 477 nM
GPATCH11
  Kd: 32.5 nM
UPF1
  Kd: 2640 nM
